The results in this text go back to patent US20220162304A1 (TUOJIE BIOTECH SHANGHAI, published 2022).

The target in experiment [1] is T1, human CD79B protein on the surface of DoHH2 cells (human, UniProt P40259 29-229).
T1 construct: whole, on cells; endogenous CD79B on a B-cell lymphoma line
T1 sequence (looked up): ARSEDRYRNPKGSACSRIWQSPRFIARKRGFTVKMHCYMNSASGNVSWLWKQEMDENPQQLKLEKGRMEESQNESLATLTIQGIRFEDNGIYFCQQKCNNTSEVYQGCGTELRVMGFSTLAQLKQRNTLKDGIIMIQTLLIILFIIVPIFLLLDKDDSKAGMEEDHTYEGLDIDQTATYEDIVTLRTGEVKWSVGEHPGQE
The experiment is described as follows: FACS on DOHH2 cells, serial antibody dilutions, anti-mouse IgG Fc-FITC secondary antibody, MFI. As to the method: 3) FACS detection of anti-human CD79B murine monoclonal antibodies. After centrifugation of the DOHH2 cell suspension, the cells were resuspended in PBS containing 0.1% BSA and counted. 100 μl of antibody diluted to 100 nM (by 1:10) was added and incubated for 1 h at room temperature. After washing the cells for three times, anti-mouse IgG Fc-FITC secondary antibody was added. After 30 min of incubation at room temperature in the dark, the cells were washed for three times and gently resuspended in PBS containing 0.1% BSA for testing on an instrument. Among them, three anti-human CD79B murine monoclonal antibodies had the strongest FACS binding ability, including mAb015, mAb016 and mAb017 (see FIG. 8 for specific data). Among them, hIgG1 was the negative control antibody and SN8 was the positive control antibody. It can be known from the results that in the FACS experiment, the binding ability of the three anti-human CD79B murine monoclonal antibodies mAb015, mAb016 and mAb017 selected preferably by the present disclosure was better than that of SN8.

Experiment [2] addresses T2, human CD79B antigen (coating antigen of the ELISA, construct not stated) (human, UniProt P40259 29-159).
T2 sequence (looked up): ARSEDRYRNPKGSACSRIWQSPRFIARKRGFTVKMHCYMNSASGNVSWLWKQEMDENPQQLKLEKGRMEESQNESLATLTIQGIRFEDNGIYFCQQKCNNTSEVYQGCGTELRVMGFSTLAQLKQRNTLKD
Description: ELISA, plate coated with antigen at 1 ug/mL, serial antibody dilutions, OD450. On the procedure:
2) ELISA detection of anti-human CD79B murine monoclonal antibodies. Before the start of the experiment, a 96-well plate was labeled accordingly and coated with an antigen at a concentration of 1 μg/mL, 50 μl per well overnight in a refrigerator at 4° C. The next day, the antigen plate coated the day before was taken out and washed with a plate washer (washing solution: 1×PBST) for once. After washing, the plate was blocked with 1% BSA blocking solution prepared in 1×PBST at 37° C. for 1 h. After washing the plate with 1×PBST washing solution for 3 times, 50 μl of antibody, diluted to 100 nM (by 1:10), were added and incubated in a 37° C. incubator for 1 h. After washing the plate with ×PBST washing solution for 3 times, 100 μl 1:5000 diluted goat-anti-mouse secondary antibody was added and incubated in a 37° C. incubator for 0.5 h. After washing the plate, TMB chromogenic solution A and B were mixed at a 1:1 ratio and then color development was carried out. The development reaction was terminated with 1 N hydrochloric acid after 15 min. The […] at 450 nm were detected on a Spectra Max M5 multi-function plate reader. Among them, three anti-human CD79B murine monoclonal antibodies had the strongest ELISA binding ability, including mAb015, mAb016 and mAb017 (see FIG. 7 for specific data). Among them, hIgG1 was the negative control antibody and SN8 was the positive control antibody. SN8 is the antibody used in the antibody-conjugated drug polatuzumab vedotin developed by Roche Pharmaceuticals (for the sequence, refer to the source of the sequence: US20170362318A). At present, polatuzumab vedotin has been approved by the FDA for marketing. It can be seen from the results that in the ELISA experiment, the binding ability of the three anti-human CD79B murine monoclonal antibodies mAb015, mAb016 and mAb017 selected preferably by the present disclosure was similar to that of SN8.
On the technique in general: In an ELISA, binding on a coated surface is turned into a signal by an enzyme label.

The target in experiment [3] is T2, human CD79B antigen (coating antigen of …). The experiment is described as follows: ELISA, hybridoma culture supernatant on plate coated with antigen 1 µg/mL. On the procedure:
3) ELISA screening. Before the start of the experiment, a 96-well plate was labeled accordingly and coated with an antigen at a concentration of 1 μg/mL, 50 μl per well overnight in a refrigerator at 4° C. The next day, the antigen plate coated the day before was taken out and washed with a plate washer (washing solution: 1×PBST). After washing, the plate was blocked with 1% BSA blocking solution prepared in 1×PBST at 37° C. for 1 h. After washing the plate with 1×PBST washing solution for 3 times, 50 μl of cell supernatant to be tested were added and incubated in a 37° C. incubator for 1 h. After washing the plate with 1×PBST washing solution for 3 times, 100 μl 1:5000 diluted goat-anti-mouse secondary antibody was added and incubated in a 37° C. incubator for 0.5 h. After washing the plate, TMB chromogenic solution A and B were mixed at a 1:1 ratio and then color development was carried out. The development reaction was terminated with 1 N hydrochloric acid after 15 min. The […] at 450 nm were detected on a Spectra Max M5 multi-function plate reader.
(§1) 5) Identification of positive hybridoma clones. After fusion and subclone screening of mouse spleen cells, we obtained a number of specific antibodies against human CD79B antigen. Among them, 17 hybridomas with the best ELISA and FACS binding ability were used for antibody production and purification. The FACS detection results of the culture supernatant of anti-human CD79B hybridoma positive clone cells are shown in Table 2. mIgG was used as a negative control in both ELISA and FACS tests.

Experiment [4] deals with T1, human CD79B protein on the surface of …. The experiment is described as follows: FACS, hybridoma culture supernatant on DoHH2 cells. On the procedure: 4) FACS screening. DoHH2 cell suspensions were centrifuged and the cells were resuspended in PBS containing 0.1% BSA and counted. The cell supernatant to be tested was added. After 60 min of incubation at room temperature, the cells were washed for three times and then anti-mouse IgG Fc-FITC secondary antibody was added. After 30 min of incubation at room temperature in the dark, the cells were washed for three times and gently resuspended in PBS containing 0.1% BSA for detection on the instrument.
as §1

The target in experiment [5] is T3, fusion protein of human CD79B extracellular domain (ECD) and His tag (human CD79B ECD-His) (human, UniProt P40259 29-159).
T3 construct: also called human CD79B-His; Human CD79B-His protein
T3 sequence: T2 sequence (looked up)
The experiment is described as follows: SPR (Biacore 8K; by Example 2 human CD79B-His immobilised on CM5 chip, antibody flowed over). On the technique in general: Surface plasmon resonance follows binding to a sensor surface in real time, without labels.

For experiment [6], the target named is T1, human CD79B protein on the surface of …. Description: FACS on DOHH2 cells, serial antibody dilutions, FITC secondary antibody, MFI.

Substitutions are numbered along the chain they refer to.

B1: murine hybridoma monoclonal antibody mAb015 (antibody, V domains shown)
VH: QVQLQQSGAELARPGASVKLSCKASGSSFTSYGINWVKQRTGQGLEWIGEIFPRSGNTYYNEKFEGKATLTADKSSSTAYMELRSLTSEDSAVYFCAKGDLGDFDYWGQGTTLTVSS
VL: DFLMTQTPLSLPVRLGDQASISCRSSQSIVHSDGNTYFEWYLQKPGQSPKLLIYKVSNRFSGVPDRFSGSGSGTDFTLKISRVEAEDLGVYYCFQGSHVPWTFGGGTKLEIK
notes: murine monoclonal antibody from hybridoma; also called 83B2G2
Usually EC50 (read off the curve) stands for the concentration needed to bring the measured effect to its halfway point. B1: the concentration giving a half-maximal response (EC50 (read off the curve)) in experiment [1] was about 0.02 µg/mL; in experiment [2], about 0.1 nM. The molecule also yielded an OD450 in experiment [3] of 3.41 OD450. The molecule also came in with a Mean fluorescence values in experiment [4] of 10000 mean fluorescence.

B2: murine hybridoma monoclonal antibody mAb017 (antibody, V domains shown)
VH: QVQLQQSGAELARPGASVKLSCKASGYTFTTYGINWVKQRTGQGLEWIGEIYPRSGNIYYNEKFKGKATLTADKSSSTAYMELRSLTSEDSAVYFCARGSDYDGDFAYWGQGTLVTVSA
VL: B1 VL with F2V, R14S, S32H, F38L, K108Q
notes: murine monoclonal antibody from hybridoma; also called 86F11F6
For B2, the “EC50 (read off the curve)” value in experiment [1] is about 0.02 µg/mL; in experiment [2], about 0.1 nM. This molecule also displayed an OD450 in experiment [3] of 3.8 OD450. This molecule also yielded a Mean fluorescence values in experiment [4] of 8130 mean fluorescence.

B3: murine hybridoma monoclonal antibody mAb016 (antibody, V domains shown)
VH: QVQLQQSGAELARPGASVKLSCKASGYIFTNYGIIWVKQRTGQGLEWIGDIFPGSGNTYYNENFKGKATLTADKSSSTAYMELRSLTSEDSAVYFCSRGELGDFDYWGQGTTLTVSS
VL: B1 VL with D1V, F2V, R14S, S28N, N35T, F38L, V90I
notes: murine monoclonal antibody from hybridoma; also called 83C2D4
In the case of B3, the “EC50 (read off the curve)” value in experiment [1] is about 0.02 µg/mL; in experiment [2], about 0.1 nM. For the same molecule, the OD450 in experiment [3] came out at 3.46 OD450. Also, the Mean fluorescence values in experiment [4] turned out to be 9990 mean fluorescence.

B4: humanized antibody hAb015 (antibody, human IgG1, kappa, V domains shown)
VH: EVQLVQSGAEVKKPGSSVKVSCKASGSSFSSYGINWVKQAPGQGLEWIGEIFPRSGNTYYNEKFEGRATLTADKSTSTAYMELRSLRSEDTAVYYCAKGDLGDFDYWGQGTTVTVSS
VL: DFVMTQTPLSLPVTPGEPASISCRSSQSIVHSDGNTYFEWYLQKPGQSPKLLIYKVSNRFSGVPDRFSGSGSGTDFTLKISRVEAEDVGVYYCFQGSHVPWTFGGGTKVEIKR
As usually defined, the Kd is the concentration at which binding is half-saturated. Lower therefore signals tighter binding. B4: binding in experiment [5] was put at a Kd of 0.43 nM.

B5: humanized antibody hAb017 (antibody, human IgG1, kappa, V domains shown)
VH: EVQLVQSGAEVKKPGASVKVSCKASGYTFTTYGINWVKQAPGQGLEWIGEIYPRSGNIYYNEKFKGKATLTADKSTSTAYMELRSLRSDDTAVYYCARGSDYDGDFAYWGQGTLVTVSS
VL: B4 VL with F2V, S32H, F38L, K50Q
In the case of B5, the Kd in experiment [5] is 3.77 nM.

B6: SN8 (antibody, V domains shown)
VH: EVQLVESGGGLVQPGGSLRLSCAASGYTFSSYWIEWVRQAPGKGLEWIGEILPGGGDTNYNEIFKGRATFSADTSKNTAYLQMNSLRAEDTAVYYCTRRVPIRLDYWGQGTLVTVSS
VL: DIQLTQSPSSLSASVGDRVTITCKASQSVDYEGDSFLNWYQQKPGKAPKLLIYAASNLESGVPSRFSGSGSGTDFTLTISSLQPEDFATYYCQQSNEDPLTFGQGTKVEIKR
As to B6, the “EC50 (read off the curve)” value in experiment [6] is about 0.09 µg/mL.
